Measurements published in patent publication US20230399394A1 (SUNSHINE GUOJIAN PHARMACEUTICAL SHANGHAI, published 2023).
Positions count from the first letter of the chain named.

B1: 874F7 (antibody, V domains shown)
VH: QVQLKESGPGLVAPSHSLSITCNVSGFSLSKYGVHWIRQIPGRGLDWLGVLRAGGSTGYNSALMSRLSISKDSSKSQVFLKMNDLRTDDTAVYFCVRDHYYYSSYGGFVYWGQGTLVTVSA
VL: DIQMTQSPASQSASLGESVTITCLASQTIGAWLAWYRQQPGKSPQLLIYAATRLADGVPSRFSGSGSGTEFSFKINNLQAEDFVSYYCQQLDSSPYTFGGGTRLEM
notes: Murine hybridoma antibody purified on Protein G; also called murine antibody 874F7
B2: 874F7-Hu1 (antibody, human IgG4 S228P, kappa)
heavy: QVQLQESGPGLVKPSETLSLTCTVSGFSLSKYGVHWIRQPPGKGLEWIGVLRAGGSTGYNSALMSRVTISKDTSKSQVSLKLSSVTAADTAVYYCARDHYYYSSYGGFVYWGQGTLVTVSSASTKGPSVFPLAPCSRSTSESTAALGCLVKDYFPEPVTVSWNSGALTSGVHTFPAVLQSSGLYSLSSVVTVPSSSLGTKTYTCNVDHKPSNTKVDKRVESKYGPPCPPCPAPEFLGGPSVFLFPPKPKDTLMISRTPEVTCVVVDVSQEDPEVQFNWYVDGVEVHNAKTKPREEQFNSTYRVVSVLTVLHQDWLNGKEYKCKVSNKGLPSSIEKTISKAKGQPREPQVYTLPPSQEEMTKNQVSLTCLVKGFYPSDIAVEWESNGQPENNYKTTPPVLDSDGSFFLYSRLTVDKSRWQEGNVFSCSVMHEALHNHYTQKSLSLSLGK
light: DIQMTQSPSSVSASVGDRVTITCLASQTIGAWLAWYQQKPGKSPKLLIYAATRLADGVPSRFSGSGSGTDFTLTISSLQPEDFATYYCQQLDSSPYTFGQGTKVEIKRTVAAPSVFIFPPSDEQLKSGTASVVCLLNNFYPREAKVQWKVDNALQSGNSQESVTEQDSKDSTYSLSSTLTLSKADYEKHKVYACEVTHQGLSSPVTKSFNRGEC
notes: also called 874F7-Hul; humanized antibody 874F7-Hu1

Tests used:
[1] = target: T1, Pep9 (human, N-terminal biotin); assay: ELISA, biotinylated peptide on streptavidin plate, antibody 10 µg/mL, well 2
T1 construct: Synthetic 20-mer of human IL-33
T1 peptide: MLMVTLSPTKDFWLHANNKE
Procedure: (§1) To determine the binding activity of antibody to each polypeptide fragment, the ELISA plate was pre-coated by biotin-avidin (SA) which was diluted in coating solution (50 mM carbonate coating buffer, pH 9.6) to 2 μg/ml at 4° C. overnight. The plate was washed with PBST for 3 times, and then blocked with 2% BSA prepared in PBS at room temperature for 2 h with 200 μL/well. The plate was washed once with PBST, and 864F3 and 874F7 with final concentrations of 10 μg/mL were added at 100 μL/well, respectively, and the plate was incubated at room temperature for 1 h. The plate was washed with PBST for 3 times, and the goat anti-mouse IgG labeled by HRP was added and placed at 37° C. for 30 min. After washing the plate with PBST for 3 times, the plate was patted on the absorbent paper to remove residual droplets as far as possible. 100 μl TMB developing solution was added to each well, and the plate was placed at room temperature (20±5° C.) for 5 minutes away from light; 50 μl 2M H₂SO₄ terminating solution was added to each well to terminate the substrate reaction. OD values were read at 450 nm on the microplate reader to analyze the binding ability of the antibody to each polypeptide fragment. The experimental results are shown in […]

[2] = target: T2, Pep12 (human, N-terminal biotin); assay: as above
T2 construct: Synthetic 20-mer of human IL-33
T2 peptide: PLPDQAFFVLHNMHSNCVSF
Procedure: as §1

[3] = target: T3, Pep1 (human, N-terminal biotin); assay: as above
T3 construct: Synthetic 20-mer of human IL-33
T3 peptide: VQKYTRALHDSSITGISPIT
Procedure: as §1

[4] = target: T4, IL-33 mutant protein K70A (human, UniProt O95760 112-270); assay: ELISA as Example 9; row K70A
T4 construct: Prokaryotic expression
T4 chain: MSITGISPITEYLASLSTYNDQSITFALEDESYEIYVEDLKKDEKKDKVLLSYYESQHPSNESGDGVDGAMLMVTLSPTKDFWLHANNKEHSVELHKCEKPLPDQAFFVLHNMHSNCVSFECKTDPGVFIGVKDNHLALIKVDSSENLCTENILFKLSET
Procedure: (§2) SA protein was diluted to 2 μg/mL to coat ELISA plate at 100 μL/well overnight at 4° C. The plate was washed with PBST (PBS containing 0.05% Tween20) for 3 times, and blocked with 2% BSA prepared in PBS at 200 μL/well, at room temperature for 2 h. After the plate was washed twice with PBST, IL-33-his-biotin protein was diluted to 1 μg/mL with 1% BSA prepared in PBST, and was added to ELISA plate at 100 μL/well. The plate was incubated at room temperature for 1 h, and each monoclonal antibody was diluted with 1% BSA prepared in PBST in a 3-fold gradient. The highest concentration of antibody was 10 μg/mL, and the antibody was diluted for 12 gradients. Each diluted monoclonal antibody was added to ELISA wells with 100 μL/well, and the plate was incubated at room temperature for 1 h. Each sample was added to duplicate wells in parallel. The plate was washed with PBST for 3 times, and HRP-anti human IgG Fc secondary antibody prepared with PBST was diluted at an appropriate ratio, and was added to ELISA wells at 100 μL/well. […] Each reaction solution was shaken uniformly and OD450 nm was read on a microplate reader. The data was analyzed and EC₅₀ was calculated.
(§3) Subsequently, according to the experimental method of Example 9, the affinity of the above mutant proteins to 874F7-Hu1 was determined, and IL-33 proteins (WT-1, WT-2, WT-3, and WT-4) without any mutation were set as controls.

[5] = target: T5, IL-33 protein without any mutation (WT) (human, UniProt O95760 112-270); assay: ELISA as Example 9; row WT-1
T5 construct: Control of the alanine scan (four runs WT-1 to WT-4); also called WT-1; WT-2
T5 sequence: T4 chain with A70K
Procedure: as §2, §3

Row | Binder | OD450 [1] | OD450 [2] | OD450 [3] | EC50 [4] | EC50 [5]
1 | B1 | 0.061 OD450 | 0.053 OD450 | 0.061 OD450 |  | 
2 | B2 |  |  |  | 0.11 nM | 0.23 nM
